The source of these data is PMC11842843, “Structural basis for malate-driven, pore lipid-regulated activation of the Arabidopsis vacuolar anion channel ALMT9” (Nature Communications, 2025).

This data set concerns the molecule itself. Nature of the data set: cryo-EM structure; purified AtALMT9-sfGFP-HA-H10 in LMNG; three datasets (LMNG + CHS; LMNG + CHS + 10 mM malate; LMNG + 10 mM malate); 20 mM HEPES pH 7.6, 150 mM NaCl, 1 mM TCEP; nine lipid-bound classes.

The stoichiometry N is a count of units in the complex or per binding partner.

B1: AtALMT9-superfolder GFP (sfGFP)-hemagglutinin (HA) tag-decahistidine (H10) tag (natural protein, Arabidopsis thaliana, UniProt Q9LS46 1-598, looked up)
chain: MAAKQGSFRHGILEKRERLLSNNGFSDFRFTDIESNDLLENENCGRRTRLCCCCSCGNLSEKISGVYDDAKDVARKAWEMGVSDPRKIVFSAKIGLALTIVALLIFYQEPNPDLSRYSVWAILTVVVVFEFTIGATLSKGFNRALGTLSAGGLALGMAELSTLFGDWEEIFCTLSIFCIGFLATFMKLYPSMKAYEYGFRVFLLTYCYILISGFRTGQFIEVAISRFLLIALGAGVSLGVNMFIYPIWAGEDLHNLVVKNFMNVATSLEGCVNGYLRCLEYERIPSKILTYQASEDPVYKGYRSAVESTSQEESLMSFAIWEPPHGPYKSFNYPWKNYVKLSGALKHCAFTVMALHGCILSEIQAPEERRQVFRQELQRVGVEGAKLLRELGEKVKKMEKLGPVDLLFEVHLAAEELQHKIDKKSYLLVNSECWEIGNRATKESEPQELLSLEDSDPPENHAPPIYAFKSLSEAVLEIPPSWGEKNHREALNHRPTFSKQVSWPARLVLPPHLETTNGASPLVETTKTYESASALSLATFASLLIEFVARLQNVVDAFKELSQKANFKEPEIVTTGTDVEFSGERVGLGQKIRRCFGM
notes: cloned into modified pACEBac2-sfGFP-HA-H10; No tag cleavage is described; The final models lack the flexible N-terminus, the C-terminus and two long loops (between H1 and H2, and between H5 and H6); also called ALMT9 from Arabidopsis thaliana; source: Sf9 cells (baculovirus), purified (TALON resin, Superdex 200 increase) in LMNG with or without CHS
Regarding B1, the “stoichiometry N” value worked out at 2.
